Results reported in the MegaScale stability set (Tsuboyama et al. 2023).

B1: r16_88_TrROS_Hall (parent)
chain: EVIELKIKFKTPEQREKLKEIAKKLNAEVVEEKDGEVIIRFKTPEQAERALKEAEKLGAEVEL

Variants of: B1
Assay: folding stability dG (cDNA display proteolysis); higher = more stable
Conditions: PBS, room temperature

Point of comparison: EVIELKIKFKTPEQREKLKEIAKKLNAEVVEEKDGEVILRFKTPEQAERALKEAEKLGAEVEL [I39L], “folding stability dG” value 4.67 kcal/mol. Against it:
- EVIELKIKFKTPEQREKLKEIAKKLNAEVVEEKDGKVIIRFKTPEQAERALKEAEKLGAEVEL [E36K] — lower, 4.65 kcal/mol
- EVIELKIKFKTPEQREKLKEIAKKLNAEVVEEKDGIVIIRFKTPEQAERALKEAEKLGAEVEL [E36I] — lower, 4.32 kcal/mol
- EVIELKIKFKTPEQREKLKEIAKKLNAEVVEEKDGSVIIRFKTPEQAERALKEAEKLGAEVEL [E36S] — lower, 4.26 kcal/mol
- EVIELKIKFKTPEQREKLKEIAKKLNAEVVEEKDGHVIIRFKTPEQAERALKEAEKLGAEVEL [E36H] — higher, 4.68 kcal/mol
- EVIELKIKFKTPEQREKLKEIAKKLNAEVVEEKDGTVIIRFKTPEQAERALKEAEKLGAEVEL [E36T] — lower, 4.59 kcal/mol
- EVIELKIKFKTPEQREKLKEIAKKLNAEVVEEKDGNVIIRFKTPEQAERALKEAEKLGAEVEL [E36N] — lower, 4.24 kcal/mol
- EVIELKIKFKTPEQREKLKEIAKKLNAEVVEEKDGFVIIRFKTPEQAERALKEAEKLGAEVEL [E36F] — lower, 4.66 kcal/mol
- EVIELKIKFKTPEQREKLKEIAKKLNAEVVEEKDGGVIIRFKTPEQAERALKEAEKLGAEVEL [E36G] — lower, 4.39 kcal/mol
- EVIELKIKFKTPEQREKLKEIAKKLNAEVVEEKDGQVIIRFKTPEQAERALKEAEKLGAEVEL [E36Q] — the same, 4.67 kcal/mol
- EVIELKIKFKTPEQREKLKEIAKKLNAEVVEEKDGLVIIRFKTPEQAERALKEAEKLGAEVEL [E36L] — lower, 4.61 kcal/mol
- EVIELKIKFKTPEQREKLKEIAKKLNAEVVEEKDGMVIIRFKTPEQAERALKEAEKLGAEVEL [E36M] — lower, 4.48 kcal/mol
- EVIELKIKFKTPEQREKLKEIAKKLNAEVVEEKDGVVIIRFKTPEQAERALKEAEKLGAEVEL [E36V] — lower, 4.36 kcal/mol
- EVIELKIKFKTPEQREKLKEIAKKLNAEVVEEKDGYVIIRFKTPEQAERALKEAEKLGAEVEL [E36Y] — higher, 4.89 kcal/mol
- EVIELKIKFKTPEQREKLKEIAKKLNAEVVEEKDGEVIINFKTPEQAERALKEAEKLGAEVEL [R40N] — lower, 4.13 kcal/mol
- EVIELKIKFKTPEQREKLKEIAKKLNAEVVEEKDGEVIIMFKTPEQAERALKEAEKLGAEVEL [R40M] — lower, 4.64 kcal/mol
- EVIELKIKFKTPEQREKLKEIAKKLNAEVVEEKDGEVIIHFKTPEQAERALKEAEKLGAEVEL [R40H] — lower, 4.04 kcal/mol
- EVIELKIKFKTPEQREKLKEIAKKLNAEVVEEKDGEVIILFKTPEQAERALKEAEKLGAEVEL [R40L] — lower, 4.5 kcal/mol
- EVIELKIKFKTPEQREKLKEIAKKLNAEVVEEKDGEVIIAFKTPEQAERALKEAEKLGAEVEL [R40A] — lower, 4.3 kcal/mol
- EVIELKIKFKTPEQREKLKEIAKKLNAEVVEEKDGEVIIDFKTPEQAERALKEAEKLGAEVEL [R40D] — lower, 3.83 kcal/mol
- EVIELKIKFKTPEQREKLKEIAKKLNAEVVEEKDGEVIIGFKTPEQAERALKEAEKLGAEVEL [R40G] — lower, 4.15 kcal/mol
- EVIELKIKFKTPEQREKLKEIAKKLNAEVVEEKDGEVIIIFKTPEQAERALKEAEKLGAEVEL [R40I] — lower, 4.47 kcal/mol
- EVIELKIKFKTPEQREKLKEIAKKLNAEVVEEKDGEVIIKFKTPEQAERALKEAEKLGAEVEL [R40K] — lower, 4.27 kcal/mol
- EVIELKIKFKTPEQREKLKEIAKKLNAEVVEEKDGEVIICFKTPEQAERALKEAEKLGAEVEL [R40C] — lower, 4.37 kcal/mol
- EVIELKIKFKTPEQREKLKEIAKKLNAEVVEEKDGEVIIFFKTPEQAERALKEAEKLGAEVEL [R40F] — lower, 4.66 kcal/mol
- EVIELKIKFKTPEQREKLKEIAKKLNAEVVEEKDGEVIIEFKTPEQAERALKEAEKLGAEVEL [R40E] — lower, 3.93 kcal/mol
- EVIELKIKFKTPEQREKLKEIAKKLNAEVVEEKDGEVISRFKTPEQAERALKEAEKLGAEVEL [I39S] — lower, 3.19 kcal/mol
- EVIELKIKFKTPEQREKLKEIAKKLNAEVVEEKDGEVIVRFKTPEQAERALKEAEKLGAEVEL [I39V] — lower, 4.44 kcal/mol
- EVIELKIKFKTPEQREKLKEIAKKLNAEVVEEKDGEVIKRFKTPEQAERALKEAEKLGAEVEL [I39K] — lower, 1.68 kcal/mol
- EVIELKIKFKTPEQREKLKEIAKKLNAEVVEEKDGEVIMRFKTPEQAERALKEAEKLGAEVEL [I39M] — lower, 4.65 kcal/mol
- EVIELKIKFKTPEQREKLKEIAKKLNAEVVEEKDGEVIQRFKTPEQAERALKEAEKLGAEVEL [I39Q] — lower, 3.99 kcal/mol
- EVIELKIKFKTPEQREKLKEIAKKLNAEVVEEKDGEVIFRFKTPEQAERALKEAEKLGAEVEL [I39F] — higher, 4.92 kcal/mol
- EVIELKIKFKTPEQREKLKEIAKKLNAEVVEEKDGEVINRFKTPEQAERALKEAEKLGAEVEL [I39N] — lower, 2.82 kcal/mol
- EVIELKIKFKTPEQREKLKEIAKKLNAEVVEEKDGEVIPRFKTPEQAERALKEAEKLGAEVEL [I39P] — lower, 0.941 kcal/mol
- EVIELKIKFKTPEQREKLKEIAKKLNAEVVEEKDGEVICRFKTPEQAERALKEAEKLGAEVEL [I39C] — lower, 4.35 kcal/mol
- EVIELKIKFKTPEQREKLKEIAKKLNAEVVEEKDGEVIYRFKTPEQAERALKEAEKLGAEVEL [I39Y] — higher, 5 kcal/mol
- EVIELKIKFKTPEQREKLKEIAKKLNAEVVEEKDGEVITRFKTPEQAERALKEAEKLGAEVEL [I39T] — lower, 3.95 kcal/mol
- EVIELKIKFKTPEQREKLKEIAKKLNAEVVEEKDGEVIHRFKTPEQAERALKEAEKLGAEVEL [I39H] — lower, 3.68 kcal/mol
- EVIELKIKFKTPEQREKLKEIAKKLNAEVVEEKDGEVIRRFKTPEQAERALKEAEKLGAEVEL [I39R] — lower, 0.96 kcal/mol
- EVIELKIKFKTPEQREKLKEIAKKLNAEVVEEKDGEVIGRFKTPEQAERALKEAEKLGAEVEL [I39G] — lower, 3.23 kcal/mol
- EVIELKIKFKTPEQREKLKEIAKKLNAEVVEEKDGEVIARFKTPEQAERALKEAEKLGAEVEL [I39A] — lower, 4.41 kcal/mol
- EVIELKIKFKTPEQREKLKEIAKKLNAEVVEEKDGEVIERFKTPEQAERALKEAEKLGAEVEL [I39E] — lower, 2.69 kcal/mol
- EVIELKIKFKTPEQREKLKEIAKKLNAEVVEEKDGEVIDRFKTPEQAERALKEAEKLGAEVEL [I39D] — lower, 0.533 kcal/mol
